Experiment: soluble on expression in E. coli; label from the status in PepcDB or PDB records

Row | Sequence | soluble on expression in E. coli
1 | MSLNGNATDSSSSTSSMTENSDGQKQNNEWFHGVLQRQDADELLVKPGSFLLRASEVHGKMSMILSVRHDGKLHNIAVNSDTGENFWFEGHREKSIDQLVQWHMTTSTPITKTSGVKLKYPIGKADWIISHENVIFIKKLGEGAFGEVSLAECEIGGRKVETAVKTMRCQMTRDTRAAFMKEARLMRKYSHPHIVRIIGKIIVKHLPKVGLAVDAHPLMIVMEMCPHGSLLSFLRKNKGKTTLSERLRFCIESADGLAYLEKKQCLHRDIAARNCLLSITDQIKISDFGLSDDKRTEMHDDTLDKVPVKWLAPEVMQDKLYSLKSDVWAFGVLMWEIYADGADPYPGMTNLVTRAKIFCDDYRMTFPETTPPTISEIALKQCWAKLPSDRATMKTVHHKLKDLSMPMSDVSFSMKMKR | not soluble
2 | MHIIFDTSGFLSGLQLSLDRVYTTQEVINEIKDKYSRFNLEIAISSGKVIIMKPSTRSVEKVTKVLNLTKERKLSNTDISVIALALDLQPSIVFTDDLSVQNILKQLGIQFSSVKINKKVEKSFKFKYVCVNCKREFNIDHGECPYCGGKVVKRRIMELEHHHHHH | not soluble
3 | KPYVSEDSRVYSPQEPTLVVKSVDNSVSIDVTSKYNVNLYRNGELIQKNVIAQSYSDTPTGFACYLAESINDKGFRSNPSQPVCVGEEIRIKLDGEYQPLKDNVSVVTVSKDSGIVKGAESFTAPVTGTYQFDAWYNNNLGQLNTGITNTVKLLEVLDDAGKVVGQGYLQMGHIGENQGMRYSTPIEVALEQGKTYQFALKDHFNMSYLTSNETYIYAGGIEGEKNEAQIADIRITPLM | not soluble
4 | MGSDKIHHHHHHMEPIIEIENFSAYYGEKIAVKNVTMKIFKNQITAIIGPSGCGKTTLLRSINRMNDHLPGFRVEGKIYFKGQDIYDPQLDVTEYRKRVGMVFQKPTPFPMSIYDNVAFGPRIHGVKSKHILDRIVEESLKKAALWDEVKSELNKSGTRLSGGQQQRLCIARALAVEPEVILLDEPTSALDPIATQRIEKLLEELSENYTIVIVTHNIGQAIRIADYIAFMYRGELIEYGPTREIVERPKNRLTEEYLTGKIG | not soluble
5 | MGLSGFHSFLCCRSRDYHLVINTLIHTVMTMDITKSVAFTGHRSERILQVRMLYLYLDIVSQVKRLYSLGYRYFLSGMAEGFDLLAAQAVTALKAEYTDIRLIAVVPFSRQSNRYRPENKSLYDRIMKTADETVILREDYRKGCFHHRNDYLIDNSEIVLAYWDKQPYGGTYYTVGKARMVNRIIINLYK | not soluble
6 | MAHHHHHHMAANEGNQSCMDALSSITFAQLAGPLQPVYGPSRVPRHQQFVDLVTDSSGMSPFIPFGTQGSANSSTAFPVDNAYLSKRAPPESEGQNRAAYYNNSSASMQTPEKVDKPQMLRQVSVGAPTPSSGMGMTASPATVCRYITHATPGSALLDETCTRTYLRSAPMNFVASTGITTDNAIGAVSNAVLSAAAAALPSVKVSIDDKPTSLAIELEQAYEEHVHESKRRVGDKVKRKEKKVLVTVGFPGVDNVPQMISDGTEEQLLNKEEVEQGKRRRERRQSRGKNKQKGDNNNNNCIFHDGDKFVSNFSSIHADNESHGECGDRKFLVTLRCHGHRDVTAICCLRLSKGKYVIFEADRGVDLGEVINVKELISEPSGNSAPAQVLRCALDEEVEDWKGPLVERENEAVEECRHVCEQLGLTIRVVGAAYQFDRQKLTFMYESDDRVDFRALLQVMFSKFRCRIWMERRGRGHQDNDAHTG | not soluble
7 | LAEGEEQIVARDGNSWLVDGVTPITDVMRSFAIEEFPQQQNYETIAGFMMYMLRKIPRRTDSVVYAGYKFEVVDIDNYKVDQLLVSRVE | not soluble
8 | MGSDKIHHHHHHMLSTANITMQFGAKPLFENVSVKFGEGNRYGLIGANGCGKSTFMKILGGDLEPTSGQVMKDATTRLGKLSQDQFAFESERVIDTVIMGNTELWEVAAERERIYSQTEMSEEDGMKVADLEVRYAELDGYTAEARAGELLLGLGIPLVQHTQPMSVVAPGWKLRVLLAQALFSDPDVLLLDEPTNHLDINTIRWLEEILRSRSSTMLIISHDRHFLNRVCTHMADLDYGELTLFPGNYDEYMTAATQARERLHADNAKKKAEIAELQQFVSRFSANASKAKQATSRQRKIDKIQLDEVKPSSRVSPFIRFEQTKKIHRHALNAEKLSKAWGDNVLFERFDLQVEAGERVAIIGPNGIGKTTLLNCLVGTMTPDAGEVKWTDAAEVGYFAQDHADDFEGGETLFEWMRQWTTEGEQTVRGALGRMLFSNDDIGKSVKVISGGEQGRMLFGKLALQKPNVLVMDEPTNHLDMESIEALNLALENYPGTLIFVSHDREFVGSLATRIIELKDDDIVDFSGSYDDYLRSQSIYD | not soluble
9 | MGHHHHHHEFMLKNDDFVIAKNQLGNIVPNSVGVIRAVNGKSAMVLFIGLNELKRVDFSELEAIDIYRTGKGYDKKICNICHILKNTDGFEINQTDAKGRKTTRPSCRECRKNIDGVKLSSTEKKKMDEIAPPKGSVFTCPICEKRSIVGVTANLVHDHNHDTGWGREWICDSCNTGLGRFKDNPKFLEKVIEYLKKYEK | soluble
10 | MGSDKIHHHHHHMSFTSLPLTEINHKLPARNIIESQWITLQLTLFAQEQQAKRVSHAIVSSAYRKAEKIIRDAYRYQREQKVEQQQELACLRKNTLEKMEVEWLEQHVKHLQDDENQFRSLVDHAAHHIKNSIEQVLLAWFDQQSVDSVMCHRLARQATAMAEEGALYLRIHPEKEALMRETFGKRFTLIIEPGFSPDQAELSSTRYAVEFSLSRHFNALLKWLRNGEDKRGSDEY | not soluble
11 | MGSDKIHHHHHHMTFAQIQTFLAVARLGNFHAAARQLNVTQAAVSARVRQLEEELDLRLFERGRRGAELTEAGRFLLPGAEAIASTWTTISKDARHFYAGRVPLRLGGQLSIWDQQLVDLVIWVEETLGALPLALNFDHEMNVQDAIRNGVLDFALTHEQPAPDLTGVALPAERLVLVGSEPFDLGQSDLPLFMNFQLGGQYDAFVARHLSGHAGQHIMMGNCAMGLRYLRKRGGIAFFPVSMVVEDIQHGHLFPVQGVPEMELACNAVYHPSSVLGDLTAQIATAARSLRSREPVVALDTMS | not soluble
12 | MTKQIKVGVIGVGQMGQYHAEIYQKLPQVELVAICEFNDERRAEMAEKFQCKAYKDYHELLANTEIEAVIIVLPDNMHRDCVEEAVKHKKHILLEKPLAKELEDGKAMYELTKDYDKVFTVGFLLRFDPRFNMIKQRLDNGELGDIIHLYCRRNSPITGPKRYIGASDLSMHVMIHDIDYINWYMDSEPVKVIAKSRSVLLKEYGMNDVIYAIVTYENGAIACLEACWVLPENSPTIIDDKLELVGTKGVAYVDSCDHGVRFVSEKGVSYPDSRHWYYTNGEVSGDLAEEVMAFINNVANNTKSIITPKEAYDSLRVVDAIERSIAEGKEVSL | not soluble
13 | MGSDKIHHHHHHMQTGKAISIPSILKVGNGTLNKIGEYLKSEELTSVVIFMGNGLIDMFGDTIMKSLTDAGITVLEYSELDTVEIDDIITLAFDIPNKVKAVVSVGGGKVIDAGKYAAFLRNMPFISVPTSSSSDGFSSASASLLVHGKRTSVPAKLAHGIIVDTQVIRTAPEKFIYSGIGDMVSKITALYDWIFEEAHGAGVVNDFAVMVAKKAVNSFVRTPYESIKDELFLKELVDSLAMSGIANEIAGSSAPTSGSEHLISHALDKILEHPQLHGIQVGIATYIMSVVQNHRYVRVCTVLKRTGFFDYAATLGMRKQDFLDAIDMAPSMKPFRHTYLHEKEYRDAAKKLVLEDDILNKILV | not soluble
14 | EELEERLVEWIVVQCGPDVGRPDRGRLGFQVWLKNGVILSKLVNSLYPEGSKPVKVPENPPSMVFKQMEQVAQFLKAAEDYGVIKTDMFQTVDLYEGKDMAAVQRTLMALGSLAVTKNDGNYRGDPNWFMK | soluble
15 | MKQFNLIATSGQGIEALVAKELNNLGYQTRTENGFVRFSGNQRDILKTNIWLRTADRIKILVGEFHTLRFDDLFESVKALPWSELINWDDQFPVMEAHSRDSQLFSVPDIQRITKKAIVEALRSQTGHEDLPETGKHVGIDIRIDKNNVRIMIDTSGESLFKRGYRTEHGGAPLKENFAAALVLLTNWFTDNPFVDPVCGSGTIPIEAALIGKNIAPGINRTFEIESWAWFDKKLSQDVREEADILAKYDQPLDISGYDIDGNMIRISKENAKKAGLYNDIAFKQLAVKDWQTDKINGILVANPPYGQRLGEIEDARQIYQQMGSIYNQMSTWSKYILTSDEKFEQFYGKKATKKRKLYNGPIRTDLYQYWGKKVR | not soluble
16 | MVNLANVLTNATAATLSAWSNTVPLETYFHFDEASGFGDYYLNVSVIWMNETLYETRIVPAIINVREWLDHMEANDPSPSVTNPYETSGYYAFSTVVPVLMGNMKVA | not soluble
17 | MLSKVQCILNRRTMADVDVDVPSAAPVLDGAMDINTALQEVLKKSLIADGLVHGIHQACKALDKRQAVLCILAESFDEPNYKKLVTALCNEHQIPLIRVDSHKKLGEWSGLCKIDKEGKPRKVCGCSVVVIKDFGEETPALDVVKDHLRQNSLEHHHHHH | not soluble
18 | MGSDKIHHHHHHQEQVKVVDRTIRIGDAMEHPVPMKLSAFVDSITYVPLETTKSYVKDKMLISYVKPYWGVYPGSLFDKEGRFVANIGALGQGPGEESGFGYSIFYDRDRNIFYTQGDKIIQFDAKGKFTGKEIRIAYRDKGIEGKIASGLKNVYAMVKSGKDYLIVNYPDSIFWMDAELNVRHGDRIISDSLFLTPSGVGGGMPYTFSDYKDTTIFYNCFTDAIYTVTDTGLQKRWTLEFKGSKADNRCFLNDYKKLYLDEYVKIVSSSKGNVETMKEKAQNSELAQLIDNKKWVYHVSEGERYLFLWWLNLKAFSSAWRGYNESHIALYDKRTGEAVAIAGDGLIDDIDNGMTFFPRYGICNNAMVSSVWPFELKEYIQEKKAKGEAVSDRLIALADSLDDEQNPILVIAHLKK | not soluble
19 | MKCKDDMSAVLTAEQALKLVGEMFVYHMPFNRALGMELERYEKEFAQLAFKNQPMMVGNWAQSILHGGVIASALDVAAGLVCVGSTLTRHETISEDELRQRLSRMGTIDLRVDYLRPGRGERFTATSSLLRAGNKVAVARVELHNEEQLYIASATATYMVGLEHHHHHH | soluble
20 | MGSDKIHHHHHHMIKQVNPHFKEFLFDWNQKFQFLVGGYGSSKSYHVALKIVLKLLREKRTALVIREVYDTHRDSTFSLFDELVSDLKLDHIVRCVSSPMQIRFSNGSRIIFKGMDKPAKLKSINNISLIWIEECSEVKYEGFKELLGRLRHPTLPLHMILSTNPVGEDNWTFKHFFKDDREKRFVLDDKELYEKRIIVSNDTYYHHSTADDNLFLPESYVQQLEELKEYDPDLYRIARKGHFGVNGIRVLPQFEERPHEEVMTAISNINRPLKRVGMDFGFVESYNAVVRVAVDHEKKYLYIYWEYYKNGLTDDKTAEELKEFAETKELIKADSAEPKTIRYFQQHGFNMVGARKYQGSRLQYTKKIKRFRKIICSDRCENTIYELKPLAYATDKLGNIIEDEFTIDPHTLSAIWYALDDYEVTDLKEESKGRPQRSRPGRR | not soluble
21 | MSLGGQEKEHLTMRAEEWHLVSGAVSMRGRRPTDEDTMVVVAAIHSHRNIRIQALFDGHGGPNVAQFAANRLQSLFARQKGYSRRDLEKICHALDEELKKNNVRRGGSTGVIMVIEKVEKPEKVIVRGRQILKDPGLTPLKEHYRKQAGPAEEITLGTSETPFRLHVANVGDSRAMLVLEDEYYEMTKDHKPEDPEEKSRILRAGASVTDSEGTSVPRIDGSLALSRSFGDFSLKQGSGSTPDAVISTPDVRQFYAGYNDLLVLFCDGVTEPVASSWPQVAAYTREIFVQTGDVVKTAVALAEQAYSAGSQDNLSAVVTRLRPDPAEEGHHHHHH | soluble
22 | DIINFFKQITDHEPYDYQIRAWEKINKIMELGGRVVIEIPTAGGKTEAAIIPYLYQFISNDWKVPRLIYVLPTRSLVEKQVERIRNYIKKILEIKGYSKDKVEELAKKIVQVEYGLEETHAFLGFVVLTTWDTFLYGLAAHRTVGDRFTFPCGAIAQSLVVFDEIQMYQDESLYMPRLIGLVVKRLVEANVPLVFMTATLPTELKKILGIHDEEPITVNPEDT | not soluble
